Data as given in patent publication US20070249813A1 (AbbVie / Abbott, published 2007).
Changes are numbered by the printed parent chain.

B1: VH1-D2/LOE7 scFv (scFv, V domains shown)
VH: QVQLVESGGGLVQPGRSLRLSCAASGFTFDDYAMHWVRQAPGKGLDWVSAITWNSGHIDYADSVEGRFAVSRDNAKNALYLQMNSLRPEDTAVYYCAKVSYLSTASSLDYWGQGTLVTVSS
VL: not shown
notes: scFv; not shown: the scFv linker and the order of the domains
B2: VH1F6/2SD4 VL scFv (scFv, V domains shown)
VH: B1 VH with V99A, Y101F, A105S, D109E
VL: DIQMTQSPSSLSASIGDRVTITCRASQGIRNYLAWYQQKPGKAPKLLIYAASTLQSGVPSRFSGSGSGTDFTLTISSLQPEDVATYYCQKYNSAPYAFGQGTKVEIK
notes: scFv
B3: VH1A11/2SD4 VL scFv (scFv, V domains shown)
VH: B1 VH with A97T, V99A, A105S, Y110D
VL: B2 VL
notes: scFv
B4: VH1B12/2SD4 VL scFv (scFv, V domains shown)
VH: B1 VH with V99A, A105S, S106F
VL: B2 VL
notes: scFv
B5: 2SD4 VH/VL100A9 scFv (scFv, V domains shown)
VH: B1 VH with A97T, V99A, A105S, Y110N
VL: B2 VL with N92S, A97T
notes: scFv
B6: VH1-D2/2SD4 VL scFv (scFv, V domains shown)
VH: B1 VH
VL: B2 VL
notes: scFv
B7: VH1E4/2SD4 VL scFv (scFv, V domains shown)
VH: B1 VH with V99A, A105S, D109H
VL: B2 VL
notes: scFv
B8: 2SD4 VH/VL10F4 scFv (scFv, V domains shown)
VH: B1 VH with A97T, V99A, A105S, Y110N
VL: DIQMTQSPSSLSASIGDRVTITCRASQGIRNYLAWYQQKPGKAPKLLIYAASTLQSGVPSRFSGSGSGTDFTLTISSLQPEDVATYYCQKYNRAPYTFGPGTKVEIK
notes: scFv
B9: VH1-D2/EP B12 scFv (scFv, V domains shown)
VH: B1 VH
VL: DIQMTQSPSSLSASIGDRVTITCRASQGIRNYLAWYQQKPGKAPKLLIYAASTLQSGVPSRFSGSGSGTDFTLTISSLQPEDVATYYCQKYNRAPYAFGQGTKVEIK
notes: scFv
B10: 2SD4 VH/EP B12 scFv (scFv, V domains shown)
VH: B1 VH with A97T, V99A, A105S, Y110N
VL: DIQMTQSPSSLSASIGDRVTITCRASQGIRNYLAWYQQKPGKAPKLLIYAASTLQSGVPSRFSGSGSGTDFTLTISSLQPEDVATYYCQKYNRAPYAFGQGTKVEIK
notes: scFv
B11: VH1D8/2SD4 VL scFv (scFv, V domains shown)
VH: B1 VH with K98R, V99A, A105S
VL: B2 VL
notes: scFv
B12: 2SD4 VH/VL10E4 scFv (scFv, V domains shown)
VH: B1 VH with A97T, V99A, A105S, Y110N
VL: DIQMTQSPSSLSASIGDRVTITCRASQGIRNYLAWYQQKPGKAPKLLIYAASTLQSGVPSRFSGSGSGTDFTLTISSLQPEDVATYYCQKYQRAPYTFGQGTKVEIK
notes: scFv
B13: 2SD4 VH/VLLOG9 scFv (scFv, V domains shown)
VH: B1 VH with A97T, V99A, A105S, Y110N
VL: B2 VL with N92T, A97T
notes: scFv
B14: 2SD4 VH/VLLOH10 scFv (scFv, V domains shown)
VH: B1 VH with A97T, V99A, A105S, Y110N
VL: B2 VL with P95A, A97S
notes: scFv
B15: 2SD4 VH/VL1B7 scFv (scFv, V domains shown)
VH: B1 VH with A97T, V99A, A105S, Y110N
VL: B2 VL with K90Q, Y96D, A97T, F98W
notes: scFv
B16: 2SD4 VH/VL0.1F4 scFv (scFv, V domains shown)
VH: B1 VH with A97T, V99A, A105S, Y110N
VL: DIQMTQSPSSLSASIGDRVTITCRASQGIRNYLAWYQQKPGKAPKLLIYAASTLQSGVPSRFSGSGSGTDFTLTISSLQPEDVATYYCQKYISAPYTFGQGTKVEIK
notes: scFv
B17: 2SD4 VH/VLLOG7 scFv (scFv, V domains shown)
VH: B1 VH with A97T, V99A, A105S, Y110N
VL: B2 VL with A97N
notes: scFv
B18: VH1G1/2SD4 VL scFv (scFv, V domains shown)
VH: B1 VH with V93A, V99A, A105S
VL: B2 VL
notes: scFv
B19: 2SD4 VH/VL100D2 scFv (scFv, V domains shown)
VH: B1 VH with A97T, V99A, A105S, Y110N
VL: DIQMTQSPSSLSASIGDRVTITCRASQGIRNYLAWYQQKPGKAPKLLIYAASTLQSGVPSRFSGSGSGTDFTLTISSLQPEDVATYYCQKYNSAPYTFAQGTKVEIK
notes: scFv
B20: 2SD4 VH/VL1C1 scFv (scFv, V domains shown)
VH: B1 VH with A97T, V99A, A105S, Y110N
VL: B2 VL with A94D, A97T
notes: scFv
B21: 2SD4 VH/VL0.1H8 scFv (scFv, V domains shown)
VH: B1 VH with A97T, V99A, A105S, Y110N
VL: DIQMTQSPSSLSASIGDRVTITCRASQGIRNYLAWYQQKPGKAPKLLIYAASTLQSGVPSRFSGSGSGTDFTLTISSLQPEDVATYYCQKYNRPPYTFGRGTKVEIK
notes: scFv
B22: 2SD4 VH/VL1C7 scFv (scFv, V domains shown)
VH: B1 VH with A97T, V99A, A105S, Y110N
VL: B2 VL with A97N
notes: scFv
B23: 2SD4 VH/VLLOH1 scFv (scFv, V domains shown)
VH: B1 VH with A97T, V99A, A105S, Y110N
VL: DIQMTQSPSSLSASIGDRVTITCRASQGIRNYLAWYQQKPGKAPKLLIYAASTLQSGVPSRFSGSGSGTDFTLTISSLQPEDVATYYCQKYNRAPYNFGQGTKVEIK
notes: scFv
B24: 2SD4 VH/VLL0F10 scFv (scFv, V domains shown)
VH: B1 VH with A97T, V99A, A105S, Y110N
VL: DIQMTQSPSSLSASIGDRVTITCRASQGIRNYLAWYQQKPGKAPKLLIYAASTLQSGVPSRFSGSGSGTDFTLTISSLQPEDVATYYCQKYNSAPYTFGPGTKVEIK
notes: scFv
B25: VH1B11/2SD4 VL scFv (scFv, V domains shown)
VH: B1 VH with A97T, V99A, A105S, Y110K
VL: B2 VL
notes: scFv
B26: VH1-D2.N/LOE7.T IgG4 (antibody, V domains shown)
VH: B1 VH with Y110N
VL: not shown
notes: IgG4
B27: VH1-D2.Y/LOE7.A IgG4 (antibody, V domains shown)
VH: B1 VH
VL: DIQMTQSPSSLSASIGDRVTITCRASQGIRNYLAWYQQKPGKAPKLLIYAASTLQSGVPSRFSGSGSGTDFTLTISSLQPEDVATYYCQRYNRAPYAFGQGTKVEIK
notes: IgG4
B28: VH1-D2.N/LOE7.A IgG4 (antibody, V domains shown)
VH: B1 VH with Y110N
VL: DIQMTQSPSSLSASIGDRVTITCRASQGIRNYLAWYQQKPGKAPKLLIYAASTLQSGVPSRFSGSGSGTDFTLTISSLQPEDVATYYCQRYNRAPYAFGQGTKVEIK
notes: IgG4
B29: VH1-D2/LOE7 (format printed as IgG1/IgG4 in Table 6, scFv/IgG1/IgG4 in Table 7) (antibody, V domains shown)
VH: B1 VH
VL: not shown
B30: 2SD4/2SD4 (format printed as scFv/IgG1/IgG4) (antibody, V domains shown)
VH: B1 VH with A97T, V99A, A105S, Y110N
VL: B2 VL

Target: T1, biotinylated recombinant human TNFα (human, UniProt P01375 77-233, biotinylated (D-biotinyl-ε-aminocaproic acid N-hydroxysuccinimide ester, 2:1 molar ratio of biotin to rhTNFα))
T1 construct: mature; Immobilized via streptavidin on the BIAcore chip; also called biotinylated rhTNFα; biotinylated rhTNF
Assay: SPR (BIAcore), biotinylated rhTNFα, scFv
Description: (§1) Before injection of the protein and immediately afterward, PBS buffer alone flowed through each flow cell. […] Antibodies (20 μg/ml) were diluted in PBS running buffer and 25 μl aliquots were injected through the immobilized protein matrices at a flow rate of 5 μl/min. Prior to injection of antibody, and immediately afterwards, PBS buffer alone flowed through each flow cell. The net difference in baseline signal and signal after completion of antibody injection was taken to represent the binding value of the particular sample. Biosensor matrices were regenerated using 100 mM HCI before injection of the next sample. To determine the off rate (Koff), on rate (Kₒₙ), association rate (Kₐ) and dissociation rate (Kd) constants, BIAcore kinetic evaluation software (version 2.1) was used.

T1 sequence (P01375 77-233 limits assumed): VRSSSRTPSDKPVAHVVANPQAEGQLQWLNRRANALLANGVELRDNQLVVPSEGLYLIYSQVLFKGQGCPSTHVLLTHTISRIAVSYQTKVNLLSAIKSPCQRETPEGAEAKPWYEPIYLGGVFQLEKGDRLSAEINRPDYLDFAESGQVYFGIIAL

Binder | koff [s⁻¹]
B1 | 0.00046
B2 | 0.0229
B3 | 0.0134
B4 | 0.0101
B5 | 0.0133
B6 | 0.00194
B7 | 0.0159
B8 | 0.0111
B9 | 0.0008
B10 | 0.0067
B11 | 0.0095
B12 | 0.0096
B13 | 0.0146
B14 | 0.0112
B15 | 0.013
B16 | 0.0176
B17 | 0.0156
B18 | 0.0214
B19 | 0.0141
B20 | 0.0136
B21 | 0.0114
B22 | 0.02
B23 | 0.0117
B24 | 0.0134
B25 | 0.0098

Target: T1, biotinylated recombinant human TNFα
Assay: SPR (BIAcore), scFv, reference VH1-D2/LOE7
Description: as §1

Binder | fold faster off rate against LOE7 [fold]
B9 | 2

Target: T1, biotinylated recombinant human TNFα
Assay: SPR (BIAcore), scFv; reference taken to be VH1-D2/LOE7
Description: as §1

Binder | fold faster off rate [fold]
B6 | 5

Target: T1, biotinylated recombinant human TNFα
Assay: SPR (BIAcore), biotinylated rhTNFα, IgG4
Description: as §1

Binder | koff [s⁻¹]
B26 | 2.1e-05
B27 | 2.7e-05
B28 | 3.2e-05

Target: recombinant human TNFα (human, UniProt P01375 77-233, The active form is a noncovalent homotrimer; one protomer is given.)
Assay: cell-based or functional assay

recombinant human TNFα, sequence (P01375 77-233 limits assumed): as above

Binder | IC50, neutralization of TNFα-induced L929 cytotoxicity [nM]
B29 | 0.34
B30 | 300
B6 | 10
B26 | 0.13
B27 | 0.028
B28 | 0.062

Target: T1, biotinylated recombinant human TNFα
Assay: SPR (BIAcore), biotinylated rhTNFα, format IgG1/IgG4
Description: as §1

Binder | koff [s⁻¹]
B29 | 7.7e-05
